Data as given in patent US20230365648A1 (published 2023).
Positions count from the first letter of the chain named. Where two headings read alike, the source gives them in different places.

T1: Cyno monkey CD47 (Cyno monkey, UniProt A0A2K5X523 19-139)
T1 chain: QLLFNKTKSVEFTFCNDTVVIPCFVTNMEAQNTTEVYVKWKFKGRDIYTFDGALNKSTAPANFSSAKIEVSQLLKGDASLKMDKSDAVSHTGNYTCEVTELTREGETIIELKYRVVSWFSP

T2: mouse CD47 (mouse, UniProt Q61735 19-140)
T2 chain: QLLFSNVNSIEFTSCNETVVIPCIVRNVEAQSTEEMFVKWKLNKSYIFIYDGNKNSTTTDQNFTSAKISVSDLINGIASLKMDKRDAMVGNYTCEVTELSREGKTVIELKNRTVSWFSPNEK

T3: rat CD47 (rat, UniProt P97829 19-140)
T3 chain: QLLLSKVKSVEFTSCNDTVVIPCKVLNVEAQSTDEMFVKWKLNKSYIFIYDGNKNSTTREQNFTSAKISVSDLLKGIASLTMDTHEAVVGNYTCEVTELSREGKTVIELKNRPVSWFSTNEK

B1: Construct 50 (SIRPα fusion polypeptide SEQ ID NO: 10 construct without the YTE mutation, i.e. with the wild type IgG4 Fc domain) (Fc fusion)
chain: EEELQIIQPDKSVLVAAGETATLRCTITSLFPVGPIQWFRGAGPGRVLIYNQRQGPFPRVTTVSDTTKRNNMDFSIRIGNITPADAGTYYCIKFRKGSPDDVEFKSGAGTELSVRAKPSAAAPPCPPCPAPEFLGGPSVFLFPPKPKDTLMISRTPEVTCVVVDVSQEDPEVQFNWYVDGVEVHNAKTKPREEQFNSTYRVVSVLTVLHQDWLNGKEYKCKVSNKGLPSSIEKTISKAKGQPREPQVYTLPPSQEEMTKNQVSLTCLVKGFYPSDIAVEWESNGQPENNYKTTPPVLDSDGSFFLYSRLTVDKSRWQEGNVFSCSVMHEALHNHYTQKSLSLSLGK
B2: Construct 67 (SIRPα fusion polypeptide of SEQ ID NO: 10, SIRPα domain of SEQ ID NO: 2 and IgG4 Fc domain with a YTE mutation) (Fc fusion)
chain: B1 chain with M151Y, S153T, T155E

Tests used:
Cyno monkey CD47 [1] = target: T1, Cyno monkey CD47; assay: BLI (Octet)
rhCD47-his (human CD47) [2] = target: T4, rhCD47-his (human CD47) (human, UniProt Q08722 19-139); assay: BLI (Octet)
Cyno monkey CD47 [3] = target: T1, Cyno monkey CD47; assay: BLI (Octet)
mouse CD47 = target: T2, mouse CD47; assay: BLI (Octet)
rhCD47-his (human CD47) [4] = target: T4, rhCD47-his (human CD47); assay: BLI (Octet); remark: listed apart in the source
rat CD47 = target: T3, rat CD47; assay: BLI (Octet)
[5] = target: CD47 on human CD45 negative red blood cells (human, UniProt Q08722 19-323); assay: FACS cell binding

Binder | Kd (Cyno monkey CD47 [1]) [nM] | Kd (rhCD47-his (human CD47) [2]) [nM] | Kd (Cyno monkey CD47 [3]) [nM] | Kd (mouse CD47) [nM] | Kd (rhCD47-his (human CD47) [4]) [nM] | Kd (rat CD47) [nM] | EC50 [5] [nM]
B1 | 0.0974 | 0.03 | 0.0974 | 5.12 | 0.03 | 1.03 | 12
B2 | 0.0211 | 0.0117 | 0.0211 | 1.61 | 0.0117 | 0.681 | 5.8
